The values that follow come from patent US20210230287A1.

pKd: −log10 of the molar value.

Assay [1] deals with human 4-1BB, full-length, on cells (human) (UniProt Q07011). Nature of the assay: flow cytometry on human 4-1BB-expressing CHO-K1 cells, PE goat anti-human IgG Fc, MFI.
Assay [2] addresses cynomolgus 4-1BB extracellular domain, His tag (cynomolgus) (UniProt A9YYE7). Nature of the assay: SPR, Biacore T200; antibody captured on Protein G chip, cynomolgus 4-1BB ECD.His as analyte.

For orientation: EC50 (read off the curve) means the concentration giving half of the maximal effect. The term pKd denotes the negative decadic logarithm of the Kd, by convention in mol/L. Read a high pKd as a low Kd.

Sequence of cynomolgus 4-1BB extracellular domain, His tag (cynomolgus) (A9YYE7 entry or part of it): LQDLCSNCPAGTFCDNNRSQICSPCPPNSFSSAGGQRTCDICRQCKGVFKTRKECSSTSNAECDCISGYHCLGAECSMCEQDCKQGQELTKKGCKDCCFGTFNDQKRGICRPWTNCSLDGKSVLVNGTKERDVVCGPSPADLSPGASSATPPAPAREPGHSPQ
Sequence of BMK4.hIgG2L(Pfizer) (antibody) (VH): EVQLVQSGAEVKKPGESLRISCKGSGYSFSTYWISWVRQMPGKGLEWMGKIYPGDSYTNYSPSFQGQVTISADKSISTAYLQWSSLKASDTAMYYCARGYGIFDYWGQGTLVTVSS
Sequence of BMK4.hIgG2L(Pfizer) (antibody) (VL): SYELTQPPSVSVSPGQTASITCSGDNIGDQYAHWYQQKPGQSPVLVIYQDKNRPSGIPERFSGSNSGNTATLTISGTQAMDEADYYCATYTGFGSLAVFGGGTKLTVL
Sequence of human 4-1BB, full-length, on cells (human) (Q07011 24-255 limits assumed): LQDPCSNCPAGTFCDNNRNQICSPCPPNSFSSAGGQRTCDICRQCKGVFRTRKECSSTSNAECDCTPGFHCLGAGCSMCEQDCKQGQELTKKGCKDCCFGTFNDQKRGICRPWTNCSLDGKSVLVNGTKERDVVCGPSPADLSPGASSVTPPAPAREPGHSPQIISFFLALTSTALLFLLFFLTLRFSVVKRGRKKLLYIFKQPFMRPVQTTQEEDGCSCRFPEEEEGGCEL

As for WBP342-BMK3.hIgG4 (antibody), the concentration giving a half-maximal response (EC50 (read off the curve)) in assay [1] was found to be 0.2 nM. In turn, BMK4.hIgG2L(Pfizer) (antibody) had a pKd in assay [2] of 7.80.
